Patent US20230416346

Legend:
[1] = biological target: recombinant human full-length SPARC (R&D Systems) (UniProt P09486)
[2] = biological target: human SPARC secreted by human mammary fibroblasts (HMFs) (UniProt P09486)
Chain of human SPARC secreted by human mammary fibroblasts (HMFs) (P09486 18-303): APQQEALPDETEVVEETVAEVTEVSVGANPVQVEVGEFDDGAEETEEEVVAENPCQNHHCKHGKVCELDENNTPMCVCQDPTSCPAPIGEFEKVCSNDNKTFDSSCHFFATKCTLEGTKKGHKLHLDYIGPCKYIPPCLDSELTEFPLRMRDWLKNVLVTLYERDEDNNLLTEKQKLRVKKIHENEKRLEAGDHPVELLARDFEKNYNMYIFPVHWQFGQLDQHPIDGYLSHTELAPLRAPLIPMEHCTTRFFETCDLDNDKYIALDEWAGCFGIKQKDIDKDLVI

Chain of human cath-D secreted by TNBC cells (MDA-MB-231) (chain, as listed by the source): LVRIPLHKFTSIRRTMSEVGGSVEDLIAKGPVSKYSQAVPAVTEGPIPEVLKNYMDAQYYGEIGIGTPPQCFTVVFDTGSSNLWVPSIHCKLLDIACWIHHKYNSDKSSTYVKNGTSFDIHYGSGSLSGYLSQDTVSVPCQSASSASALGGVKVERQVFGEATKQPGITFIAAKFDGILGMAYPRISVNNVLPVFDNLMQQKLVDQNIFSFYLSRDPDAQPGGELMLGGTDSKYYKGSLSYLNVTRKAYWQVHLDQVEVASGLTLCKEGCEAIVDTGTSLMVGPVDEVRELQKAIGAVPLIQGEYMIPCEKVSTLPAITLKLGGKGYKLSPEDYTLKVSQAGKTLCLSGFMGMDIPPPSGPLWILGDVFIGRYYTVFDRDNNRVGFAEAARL
Chain of recombinant human full-length SPARC (R&D Systems) (P09486 18-303): as the sequence (P09486 18-303) above
Chain of auto-activated 51-kDa pseudo-cath-D (recombinant human cathepsin D) (chain, as listed by the source): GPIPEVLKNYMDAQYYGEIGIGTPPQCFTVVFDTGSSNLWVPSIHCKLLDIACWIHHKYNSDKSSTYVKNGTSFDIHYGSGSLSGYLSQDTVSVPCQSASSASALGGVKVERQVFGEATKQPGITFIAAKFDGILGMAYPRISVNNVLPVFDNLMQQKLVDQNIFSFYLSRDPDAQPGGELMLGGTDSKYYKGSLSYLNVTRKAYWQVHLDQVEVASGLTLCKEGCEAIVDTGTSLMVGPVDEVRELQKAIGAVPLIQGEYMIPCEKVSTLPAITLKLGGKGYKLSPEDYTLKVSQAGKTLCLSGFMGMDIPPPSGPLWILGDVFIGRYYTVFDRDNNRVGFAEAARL

## auto-activated 51-kDa pseudo-cath-D (recombinant human cathepsin D)
[1]
  ATOMS ratio (Pseudo-cathD + SPARC - pepst./Pseudo-cath-D + SPARC + pepst), peptide DQHPIDGYLSHTELAPLR [239-256], trypsin: 8.4
  ATOMS ratio (Pseudo-cathD + SPARC - pepst./Pseudo-cath-D + SPARC + pepst), peptide EAGDHPVELLAR [207-218], trypsin: 11.3
  ATOMS ratio (Pseudo-cathD + SPARC - pepst./Pseudo-cath-D + SPARC + pepst), peptide FGQLDQHPIDGYLSHTELAPLR [235-256], trypsin: 10.6
  ATOMS ratio (Pseudo-cathD + SPARC - pepst./Pseudo-cath-D + SPARC + pepst), peptide GQLDQHPIDGYLSHTELAPLR [236-256], trypsin: 2
  ATOMS ratio (Pseudo-cathD + SPARC - pepst./Pseudo-cath-D + SPARC + pepst), peptide PLIPMEHCTTR [258-268], trypsin: 22.5
  ATOMS ratio (Pseudo-cathD + SPARC - pepst./Pseudo-cath-D + SPARC + pepst), peptide QLDQHPIDGYLSHTELAPLR [237-256], trypsin: 3.5
  ATOMS ratio (Pseudo-cathD + SPARC - pepst./Pseudo-cath-D + SPARC + pepst), peptide SHTELAPLR [248-256], trypsin: 2.7
  ATOMS ratio (Pseudo-cathD + SPARC - pepst./Pseudo-cath-D + SPARC + pepst), peptide VTLYERDEDNNLLTEK [176-191], trypsin: 12.1
  ATOMS ratio (Pseudo-cathD + SPARC - pepst./Pseudo-cath-D + SPARC + pepst), peptide YERDEDNNLLTEK [179-191], trypsin: 13.7
  ATOMS ratio (Pseudo-cathD + SPARC - pepst./Pseudo-cath-D + SPARC + pepst), peptide YERDEDNNLLTEKQK [179-193], trypsin: 21.1
  ATOMS ratio (Pseudo-cathD + SPARC - pepst./Pseudo-cath-D + SPARC + pepst), peptide YLSHTELAPLR [246-256], trypsin: 18.8
  SPARC cleavage at pH 5.9, ATOMS and silver staining: SPARC was hydrolysed by the 51-kDa cath-D form exclusively in its extracellular Ca2+ binding domain, releasing five main SPARC fragments (34-, 27, 16, 9-, and 6-kDa) at pH 5.9
  SPARC cleavage, pH dependence (6.8 to 5.5), SDS-PAGE and immunoblot: experiments in which pH was gradually reduced from 6.8 to 5.5 showed progressive limited proteolysis of SPARC at lower pH
  SPARC cleavage, time course at pH 5.9, SDS-PAGE and immunoblot: At pH 5.9, SPARC was hydrolysed by cath-D in a time-dependent manner

## fully-mature cath-D (34+14-kDa) (recombinant human cathepsin D)
[1]
  ATOMS ratio (Mature cath-D + SPARC - pepst./Mature cath-D + SPARC + pepst.), peptide DQHPIDGYLSHTELAPLR [239-256], trypsin: 8.1
  ATOMS ratio (Mature cath-D + SPARC - pepst./Mature cath-D + SPARC + pepst.), peptide DWLKNVLVTLYER [169-181], trypsin: 0.5
  ATOMS ratio (Mature cath-D + SPARC - pepst./Mature cath-D + SPARC + pepst.), peptide EAGDHPVELLAR [207-218], trypsin: 19.3
  ATOMS ratio (Mature cath-D + SPARC - pepst./Mature cath-D + SPARC + pepst.), peptide FGQLDQHPIDGYLSHTELAPLR [235-256], trypsin: 5.9
  ATOMS ratio (Mature cath-D + SPARC - pepst./Mature cath-D + SPARC + pepst.), peptide GQLDQHPIDGYLSHTELAPLR [236-256], trypsin: 2.3
  ATOMS ratio (Mature cath-D + SPARC - pepst./Mature cath-D + SPARC + pepst.), peptide LDSELTEFPLR [156-166], trypsin: 0.4
  ATOMS ratio (Mature cath-D + SPARC - pepst./Mature cath-D + SPARC + pepst.), peptide LSHTELAPLR [247-256], trypsin: 2.4
  ATOMS ratio (Mature cath-D + SPARC - pepst./Mature cath-D + SPARC + pepst.), peptide PLIPMEHCTTR [258-268], trypsin: 4.3
  ATOMS ratio (Mature cath-D + SPARC - pepst./Mature cath-D + SPARC + pepst.), peptide PVHWQFGQLDQHPIDGYLSHTELAPLR [230-256], trypsin: 5.6
  ATOMS ratio (Mature cath-D + SPARC - pepst./Mature cath-D + SPARC + pepst.), peptide QLDQHPIDGYLSHTELAPLR [237-256], trypsin: 2.2
  ATOMS ratio (Mature cath-D + SPARC - pepst./Mature cath-D + SPARC + pepst.), peptide SHTELAPLR [248-256], trypsin: 1.6
  ATOMS ratio (Mature cath-D + SPARC - pepst./Mature cath-D + SPARC + pepst.), peptide VTLYERDEDNNLLTEK [176-191], trypsin: 14.3
  ATOMS ratio (Mature cath-D + SPARC - pepst./Mature cath-D + SPARC + pepst.), peptide WQFGQLDQHPIDGYLSHTELAPLR [233-256], trypsin: 3.1
  ATOMS ratio (Mature cath-D + SPARC - pepst./Mature cath-D + SPARC + pepst.), peptide YERDEDNNLLTEK [179-191], trypsin: 11.8
  ATOMS ratio (Mature cath-D + SPARC - pepst./Mature cath-D + SPARC + pepst.), peptide YERDEDNNLLTEKQK [179-193], trypsin: 16.8
  ATOMS ratio (Mature cath-D + SPARC - pepst./Mature cath-D + SPARC + pepst.), peptide YLSHTELAPLR [246-256], trypsin: 5.7
  SPARC cleavage at pH 5.9, ATOMS and silver staining: We detected SPARC cleavage fragments of similar size also after incubation with the fully mature 34+14-kDa cath-D form at pH 5.9

## human cath-D secreted by TNBC cells (MDA-MB-231)
[2]
  SPARC cleavage in MDA-MB-231/HMF conditioned medium at pH 5.5, immunoblot: SPARC was hydrolysed in a time-dependent manner in the conditioned medium at pH 5.5
  SPARC cleavage in MDA-MB-231/HMF conditioned medium at pH 6.8 to 5.5, immunoblot: in the MDA-MB-231/HMF conditioned medium, SPARC was significantly degraded up to pH 6.2
  TAILS ratio (CM - pepst./CM + pepst.), peptide DQHPIDGYLSHTELAPLR [239-256], trypsin: 7.6
  TAILS ratio (CM - pepst./CM + pepst.), peptide EAGDHPVELLAR [207-218], trypsin: 3.4
  TAILS ratio (CM - pepst./CM + pepst.), peptide GQLDQHPIDGYLSHTELAPLR [236-256], trypsin: 12.4
  TAILS ratio (CM - pepst./CM + pepst.), peptide PLIPMEHCTTR [258-268], trypsin: 5.9
  TAILS ratio (CM - pepst./CM + pepst.), peptide QLDQHPIDGYLSHTELAPLR [237-256], trypsin: 15.1
  TAILS ratio (CM - pepst./CM + pepst.), peptide YLSHTELAPLR [246-256], trypsin: 4.4
